Measured values reported in paper PMC6748439, “Structural Insights into Curli CsgA Cross-β Fibril Architecture Inspire Repurposing of Anti-amyloid Compounds as Anti-biofilm Agents” (PLoS Pathogens, 2019).

Key:
[1] = target: CsgA, the major curli subunit (recombinant, C-terminal His6-tag) (Escherichia coli) (UniProt P28307); experiment: SEC-MALS; freshly purified CsgA concentrated to 1.8 mg/ml, Superdex 75 10/300, miniDAWN TREOS; hexamer beside a majority of monomer
[2] = target: the molecule itself; experiment: crystal structure; peptides with free (unmodified) termini, hanging drop, 293 K; micro-crystals, data collected at 100 K; LNIYQY and TASNSS crystals grown in a mixture with TAIVVQ of CsgB, which was not present in the crystals

| Molecule | stoichiometry N [1] | binding result [2] |
| --- | --- | --- |
| CsgA, the major curli subunit (recombinant, C-terminal His6-tag) (from UniProt P28307 21-151) (natural protein) | 6 |  |
| IYQYGG (CsgA residues 47-52 (R1 repeat), numbered on UniProt P28307; Unmodified termini for crystallography; in the seeding assay Ac-IYQYGG-NH2; also called R1 segment 47IYQYGG52; source: synthetic peptide, bought: GL Biochem (Shanghai) Ltd) [CsgA segment 47IYQYGG52 (R1 repeat)] |  | binds |
| VTQVGF (Unmodified termini for crystallography; in the seeding assay Ac-VTQVGF-NH2, in the ThT assay with D-peptides capped at the C-terminus; source: synthetic peptide, bought: GL Biochem (Shanghai) Ltd) [CsgA segment 137VTQVGF142 (R5 repeat)] |  | binds |
| LNIYQY (CsgA residues 45-50 (R1 repeat), numbered on UniProt P28307; Unmodified termini for crystallography; in the seeding assay Ac-LNIYQY-NH2, in the ThT assay with D-peptides capped at the C-terminus; also called R1 segment 45LNIYQY50; source: synthetic peptide, bought: GL Biochem (Shanghai) Ltd) [CsgA segment 45LNIYQY50 (R1 repeat)] |  | binds |
| TASNSS (Unmodified termini for crystallography; source: synthetic peptide, bought: GL Biochem (Shanghai) Ltd) [CsgA segment 129TASNSS134 (R4-R5 loop)] |  | binds |
